Data reported in the supplement of paper PMC9170038.

Legend:
[1] = system: MS2 coat protein; experiment: apparent KD of MS2 coat protein, switch OFF state (with FMN for OFF switches, without FMN for ON switches); designed switch direction (-1 OFF switch, 1 ON switch): -1; higher = weaker reporter binding; details: FMN input: 0 or 200 uM; Eterna round: R93 (includes R88 designs)
Summary of the method: (§1)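 Values are apparent KD, taken as the median for each design of fits to normalised binding curves from individual clusters. The designed RNA switches were transcribed on-chip from Illumina sequencing clusters and exposed to SNAP-549-labelled MS2 coat protein at twofold increasing amounts from 0.7 or 1.5 nM to 3 µM. Titration used 100 mM Tris-HCl pH 7.5, 80 mM KCl and 4 mM MgCl2, without or with constant ligand.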

[2] = system: MS2 coat protein; experiment: apparent KD of MS2 coat protein, switch ON state; designed switch direction (-1 OFF switch, 1 ON switch): -1; higher = weaker reporter binding; details: FMN input: 0 or 200 uM; Eterna round: R93 (includes R88 designs)
Summary of the method: as §1

| Sequence | apparent KD of MS2 coat protein [1] | apparent KD of MS2 coat protein [2] |
| --- | --- | --- |
| GAAAAGUCAGGAUAUGCGAAGGCGUCUGAUAGACGAGGCUAGCAGAAGGGACAUGAGGAUCACCCAUGUGGAAG [Mat - Exclusion 4 - Eli mod - D90] | 157 nM | 76.5 nM |
| AAAAAGGGAGGAUAUACGAAACAGGGAAACCUGAAAAGGAGACAUGAGGAUCACCCAUGUAGAAGGCCCAAGAA [Clint Eastwood 64% 4] | 53.3 nM | 25.3 nM |
| AAAAAUGCAGGAUAUACGAACAUGUCAAAAGACGUGAAGGGACAUGAGGAUCACCCAUGUAGAAGGGUAAAGAA [JL Neck Breaker 14] | 46 nM | 248 nM |
| ACAAAUGUAGGAUAUACAUGAGGAUCACCCAUGUGGCACAAACAGCAAACAAGACAAAGUAGAAGGACAACGAC [JR_Exc003-Sub901] | 28.4 nM | 24.9 nM |
| GGUUGGCGAGGAUAUACAUGAGGAUCACCCAUGUGAGAGAAAAAAGUGAGGAGGAGCAGUAGAAGGCGCUGACG [salish99-ex3-19] | 147 nM | 59.3 nM |
| UUAAAACAUGAGGAUCACCCAUGUGAGGAUAUGCAAUACUAAUAUUAAAAUAAUUAUAGCAGAAGGCACAUAGU [JR_EXc001_Sub802] | 60.4 nM | 28.4 nM |
| GAAAAACAUGAGGAUCACCCAUGUAAGGAUAUGCUAAAAAACACGGAAAACGUGAAUAGCAGAAGGUACAAAAG [Mat - Exclusion 1 - Eli mod - D85] | 46.8 nM | 25 nM |
| GGAUGCGUAGGAUAUACAUGAGGAUCACCCAUGUGAGAGAAAAAAGUGAGAAAGAAAAGUAGAAGGACGUGUCG [salish99-ex3-90] | 85.6 nM | 34.9 nM |
| AACAGUACAGGAUAUACAUGAGGAUCACCCAUGUGGAAAUUAAGUGGCGUACCACAAAGUAGAAGGGUACUGGA [Moding Maslow revisited (73)] | 100 nM | 29.5 nM |
| AAAAAACAUGAGGAUCACCCAUGUCAGGAUAUCUGUAUUCAAUCCUCGGAUUGAAUACAGAGAAGGGACAUGAA [Ex1: 603] | 110 nM | 41.3 nM |
| AACUAGUGAGGAUAUACAAGAAUAUAAACAAAAAUGAAGGGACAUGAGGAUCACCCAUGUAGAAGGCACUAACA [Diamond 71] | 106 nM | 34 nM |
| AAGAAGUGAGGAUAUACAAAAUAAAAGAAAAGAAAGAAAGAACAUGAGGAUCACCCAUGUAGAAGGUACAAGAA [Khakheperre Senusret II] | 22 nM | 29 nM |
| AAAAAAUAAGGAUAUACAUUUCGGGAAAUUUUUACAAAAAAACAUGAGGAUCACCCAUGUAGAAGGUAUAAAAA [Exclusion 2] | 17.7 nM | 18.6 nM |
| AAUAAACAUGAGGAUCACCCAUGUCAGGAUAUGCAUCUAACAUAAUAACAUAAAUACAGCAGAAGGGACUAAUA [JR_Exc001_Sub601] | 20.6 nM | 30.3 nM |
| AAAAUGUCAGGAUAUGCGAAGGCGUCUGACGGACGAGGAUUGCAGAAGGGACAUGAGGAUCACCCAUGUAAAAA [Mod Hyphema's Change in Energy -added G at 31] | 133 nM | 79.5 nM |
| AAAAAGUGAGGAUAUACAUGAGGAUCACCCAUGUAAAAAAAAAAAAGGGUGGAAGAAAGUAGAAGGCACCAAAA [Ex 3 May 47] | 75.1 nM | 67.3 nM |
| AAAUGACUAGGAUAUACAUGAGGAUCACCCAUGUGUAUAAAUAAAUACACAAAAGAAAGUAGAAGGAGUCAAAG [Mat - Exclusion 3 - Mayanna mod - D123] | 60.5 nM | 20.6 nM |
| AAAAAACAUGAGGAUCACCCAUGUAAGGAUAUGCUGAAAAACACGGAAAAACGUGACAGCAGAAGGUACAAAAG [Mat - Exclusion 1 - Eli mod - D93] | 84 nM | 11.8 nM |
| AACAGUACAGGAUAUACAUGAGGAUCACCCAUGUGAGAAUUAAGUGGCGAACCACAAAGUAGAAGGGUACUGAA [Mat - Exclusion 3 - JL mod - D7] | 181 nM | 45.3 nM |
| AAAUAGUUAGGAUAUACAUGAGGAUCACCCAUGUGGACUUAUGGCGAAUAAUUUAGUGGUAGAAGGGACUAAAA [EX2 Malc#28] | 53.8 nM | 62.9 nM |
